Measured values reported in patent publication US20260103529A1, “Amino Acid Sequences Directed Against the Melanocortin 4 Receptor and Polypeptides Comprising the Same for the Treatment of MC4R-Related Diseases and Disorders” (Confo Therapeutics N.V., priority 2022, published 2026).

Key:
Details in all cases: 1 μM
human MC3R = target: T1, human MC3R (Homo sapiens, UniProt P41968); test: Flow cytometry binding to Flag-tagged receptor in HEK293T cells, MC3R
T1 construct: Flag; expressed in transfected cells; host or cells: HEK293T
Experimental: (§1) To confirm MC4R activation, dose-dependent nanobody-induced cAMP signaling was assessed (Lance Ultra HTRF). […] Binding of pN162 to the human melanocortin receptor subtypes MC1R, MC2R, MC3R, MC4R or MC5R transiently expressed as Flag-tagged receptors in HEK293T cells was assessed by flow cytometry.

human MC1R = target: T2, human MC1R (Homo sapiens, UniProt Q01726); test: Flow cytometry binding to Flag-tagged receptor in HEK293T cells, MC1R
T2 construct: Flag; expressed in transfected cells; host or cells: HEK293T
Experimental: as §1

human MC2R = target: T3, human MC2R (Homo sapiens, UniProt Q01718); test: Flow cytometry binding to Flag-tagged receptor in HEK293T cells, MC2R
T3 construct: Flag; expressed in transfected cells; host or cells: HEK293T
Experimental: as §1

T2 sequence (Q01726 whole entry): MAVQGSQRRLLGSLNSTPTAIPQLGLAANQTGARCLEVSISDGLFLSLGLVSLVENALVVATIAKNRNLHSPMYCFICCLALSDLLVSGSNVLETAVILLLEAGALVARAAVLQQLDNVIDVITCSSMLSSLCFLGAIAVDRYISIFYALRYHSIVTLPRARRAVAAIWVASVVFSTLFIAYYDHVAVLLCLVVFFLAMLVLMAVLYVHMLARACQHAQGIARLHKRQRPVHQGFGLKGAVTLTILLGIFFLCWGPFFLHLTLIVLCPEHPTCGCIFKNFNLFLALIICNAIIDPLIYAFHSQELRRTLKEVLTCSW
T3 sequence (Q01718 whole entry): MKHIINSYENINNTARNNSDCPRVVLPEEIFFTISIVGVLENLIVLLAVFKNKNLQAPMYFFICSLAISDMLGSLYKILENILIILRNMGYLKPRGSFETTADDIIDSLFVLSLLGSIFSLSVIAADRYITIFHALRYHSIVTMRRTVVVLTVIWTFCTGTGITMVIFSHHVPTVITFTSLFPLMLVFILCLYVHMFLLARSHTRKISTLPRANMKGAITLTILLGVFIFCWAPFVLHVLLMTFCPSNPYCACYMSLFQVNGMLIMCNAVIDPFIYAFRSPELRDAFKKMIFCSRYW
T1 sequence (P41968 whole entry): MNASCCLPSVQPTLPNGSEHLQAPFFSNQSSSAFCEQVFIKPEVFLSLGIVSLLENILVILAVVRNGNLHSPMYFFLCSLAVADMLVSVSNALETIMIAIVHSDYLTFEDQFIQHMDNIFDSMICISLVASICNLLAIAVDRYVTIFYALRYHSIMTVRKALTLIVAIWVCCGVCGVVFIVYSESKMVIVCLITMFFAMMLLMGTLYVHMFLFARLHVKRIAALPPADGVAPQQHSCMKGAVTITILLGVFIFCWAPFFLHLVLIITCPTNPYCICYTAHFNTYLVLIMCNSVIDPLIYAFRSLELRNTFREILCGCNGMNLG

B1: pN162: agonistic anti-MC4R VHH, SEQ ID NO: 184; parental clone for potency maturation (protein)
VHH: QVQLVESGGGLVQPGGSLRLSCAASGSAFSLNVMGWYRQTPGNQRALVAEITKDGSTNYADSAKGRFTISRDNAKNTVHLQMDSLKPEDTAVYYCKARTGRIVRPLDYWGQGTQVTVSS
modifications: pN0162
No binding could be detected: binding to MC3R by flow cytometry (human MC3R) | binding to MC1R by flow cytometry (human MC1R) | binding to MC2R by flow cytometry (human MC2R)
